Square brackets hold non-standard residues; d marks the D form. Ends that are not written are not given here. Met(O) = CS(=O)CC[C@H](N)C(=O)O

For the first assay, the target named is T1, mouse ADAMTS7 (Mus musculus, UniProt Q68SA9).
T1 construct: Full-length mouse Adamts7 1-1857 (Uniprot Q68SA9, WT or E373Q catalytic mutant); expressed in transfected cells; host or cells: Human Coronary Artery Smooth Muscle Cells (HCA-SMC, Lonza), adenovirus 50 MOI
T1 sequence (Q68SA9 221-1657): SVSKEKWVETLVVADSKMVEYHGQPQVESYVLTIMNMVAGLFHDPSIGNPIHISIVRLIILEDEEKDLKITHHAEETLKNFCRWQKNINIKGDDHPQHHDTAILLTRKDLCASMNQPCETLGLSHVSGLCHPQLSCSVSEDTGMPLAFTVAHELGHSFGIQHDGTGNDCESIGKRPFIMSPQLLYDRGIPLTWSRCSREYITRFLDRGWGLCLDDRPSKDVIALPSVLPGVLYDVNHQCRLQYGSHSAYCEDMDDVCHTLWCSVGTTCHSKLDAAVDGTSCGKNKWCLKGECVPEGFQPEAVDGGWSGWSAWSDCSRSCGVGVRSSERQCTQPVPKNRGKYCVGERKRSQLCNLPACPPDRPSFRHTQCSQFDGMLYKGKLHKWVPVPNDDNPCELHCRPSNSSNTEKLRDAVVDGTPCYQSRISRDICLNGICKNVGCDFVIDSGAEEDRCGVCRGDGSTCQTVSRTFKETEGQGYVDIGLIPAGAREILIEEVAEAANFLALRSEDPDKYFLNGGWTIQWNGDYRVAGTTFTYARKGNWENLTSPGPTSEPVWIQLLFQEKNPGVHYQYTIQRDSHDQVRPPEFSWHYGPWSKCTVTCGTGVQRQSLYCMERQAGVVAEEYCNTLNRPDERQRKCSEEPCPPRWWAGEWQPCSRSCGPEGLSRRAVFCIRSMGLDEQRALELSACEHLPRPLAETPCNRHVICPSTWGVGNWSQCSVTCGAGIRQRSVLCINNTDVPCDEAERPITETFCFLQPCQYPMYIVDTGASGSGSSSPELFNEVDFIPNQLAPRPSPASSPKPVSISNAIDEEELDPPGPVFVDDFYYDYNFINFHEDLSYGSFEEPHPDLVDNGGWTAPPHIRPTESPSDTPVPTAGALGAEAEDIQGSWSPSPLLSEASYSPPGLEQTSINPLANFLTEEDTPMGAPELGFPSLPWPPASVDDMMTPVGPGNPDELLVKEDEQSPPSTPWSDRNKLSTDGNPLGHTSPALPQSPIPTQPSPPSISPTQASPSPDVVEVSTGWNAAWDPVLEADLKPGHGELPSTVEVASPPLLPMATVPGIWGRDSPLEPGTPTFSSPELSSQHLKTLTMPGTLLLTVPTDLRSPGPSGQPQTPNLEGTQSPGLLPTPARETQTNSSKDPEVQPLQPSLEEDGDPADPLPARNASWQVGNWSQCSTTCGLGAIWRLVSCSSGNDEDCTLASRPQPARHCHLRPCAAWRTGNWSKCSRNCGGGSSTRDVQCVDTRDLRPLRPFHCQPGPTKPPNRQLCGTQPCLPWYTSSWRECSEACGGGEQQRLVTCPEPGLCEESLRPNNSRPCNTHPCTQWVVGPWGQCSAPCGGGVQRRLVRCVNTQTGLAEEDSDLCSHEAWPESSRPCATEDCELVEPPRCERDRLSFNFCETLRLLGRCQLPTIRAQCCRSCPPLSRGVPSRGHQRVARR
Description: TMT10 TAILS N-terminomics, SMC2 experiment (process replicates, trypsin/AspN digest). To be noted: SMC2_TAILS HC; log fold change of N-terminal peptide, Ad-mADAMTS7 WT over Luc. The assay is classed as cell-based. In short, it runs like this:
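Full-length mouse ADAMTS7 (WT or E373Q mutant, C-terminal 3xFLAG) or luciferase was transduced via adenovirus, 50 MOI, into HCA-SMC (SMC1, SMC2) or HUVEC. SMC1: pooled media, technical triplicates 400 ug; SMC2: process triplicates 300 ug; HUVEC: process triplicates 200 ug, bFGF2 10 ng/ml.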
“LOXL1_218 (AVASAGVIYPYQPR; listed as Homo sapiens)” displayed a logFC.mWT.over.Luc of 1.72.
The substance “LOXL2_45 (HQPQAPANVAKIQLR; listed as Homo sapiens)” displayed a logFC.mWT.over.Luc of 2.62.
Regarding “LTBP2_79 (VAGLQPVER; listed as Homo sapiens)”, the logFC.mWT.over.Luc is on record as 1.54.
“LTBP2_250 (SAAGEGTLAR; listed as Homo sapiens)”: the logFC.mWT.over.Luc amounted to 2.49.
The same measure, in the same setting: then “LTBP2_290 (QHVGLSR; listed as Homo sapiens)”, with 2.94; and “LTBP2_502 (LVENSVETRPPPWLPASPGHSLW; listed as Homo sapiens)”, with 2.66; and “LTBP3_103 (LTGSGFR; listed as Homo sapiens)”, with 4.80.
The same measure, in the same setting: with “LTBP3_208 (FLVPLGPGQISA; listed as Homo sapiens)” the figure was 1.51.
On to “MAP4_815 (AVASTGPSSR; listed as Homo sapiens)”, for which the logFC.mWT.over.Luc is 1.68.
On the same count and under the same terms, then “MAP4_816 (VASTGPSSR; listed as Homo sapiens)”, with 2.53.
Substance “MMP1_100 (FVLTEGNPR; listed as Homo sapiens)” yielded a logFC.mWT.over.Luc of 2.35.
“MMP1_185 (FQPGPGIGG; listed as Homo sapiens)” registered a logFC.mWT.over.Luc of 1.08.
Same read-out and setting: then “NBEA_1892 (LEKVAPLLR; listed as Homo sapiens)”, with 2.04; and “NID1_360 (FHQQHPQVI; listed as Homo sapiens)”, with 2.47; and “NID2_291 (HSSVPLGR; listed as Homo sapiens)”, with 3.16.
“NID2_951 (YAYPGAR; listed as Homo sapiens)” returned a logFC.mWT.over.Luc of 2.73.
Same read-out and setting: then “PAK4_141 (HSEAGGGSG; listed as Homo sapiens)”, with 2.47.
On the same count and under the same terms, with “PLIN3_75 (VSGAQPILSKL; listed as Homo sapiens)” the figure was 2.32; with “POSTN_727 (IITGPEIKYTR; listed as Homo sapiens)”, 2.51.
Same read-out and setting: then “PPP1R18_295 (LSETLTR; listed as Homo sapiens)”, with 2.35; and “PTPRF_1859 (MRYEGVVDMFQTVKTLR; listed as Homo sapiens)”, with 2.51; and “QSOX1_210 (HKGVAVR; listed as Homo sapiens)”, with 1.20.
With “SHC2_267 (VAKDPINQRACHIL; listed as Homo sapiens)”, the logFC.mWT.over.Luc stood at 1.89.
On the same count and under the same terms, with “SPOCK1_27 (LAGGAGPNHGNFL; listed as Homo sapiens)” the figure was 2.03; with “SRGN_59 (LLPGESNKIPR; listed as Homo sapiens)”, 3.71; with “TNPO2_744 (VQ[Met(O)]VLNNLVEII[code n]RP[code n]TPKTLLE; listed as Homo sapiens)”, 4.08.
Same read-out and setting: with “TNS1_236 (QEGLAGYQR; listed as Homo sapiens)” the figure was 1.49.
Still for that read-out and setting: with “TRGC2_86 (HRCIVRHENNK; listed as Homo sapiens)” the figure was 3.16; with “TTN_5975 (VKEPPVEFTKPL; listed as Homo sapiens)”, 3.15; with “VAT1_42 (AASPPLLR; listed as Homo sapiens)”, 3.22.
For the substance “VIM_314 (QESTEYR; listed as Homo sapiens)”, the logFC.mWT.over.Luc is recorded as 3.06.
The same measure, in the same setting: with “VIM_333 (LKGTNESLER; listed as Homo sapiens)” the figure was 3.75.

The same assay, now with this note: SMC2_TAILS HC; log fold change, mWT over Luc.
Turning to “COL1A2_80 (QYDGKGVGLGPGPMGLMGPR; listed as Homo sapiens)”, the logFC.mWT.over.Luc is 0.82.
Substance “COL1A2_270 (VGNAGPAGPAGPR; listed as Homo sapiens)” displayed a logFC.mWT.over.Luc of 3.42.
Consider “COL1A2_305 (LTGAKGAAGLPGVAGAPGLPGPR; listed as Homo sapiens)”, for which the logFC.mWT.over.Luc worked out at 1.60.
Still for that read-out and setting: then “COL1A2_630 (VGTAGPSGPSGLPGER; listed as Homo sapiens)”, with 2.03; and “COL1A2_866 (LLGAPGILGLPGSR; listed as Homo sapiens)”, with 2.76; and “COL1A2_960 (AGAPGPHGPVGPAGKHGNR; listed as Homo sapiens)”, with 2.71.
Turning to “COL1A2_1028 (LQGLPGIAGHHGDQGAPGSVGPAGPR; listed as Homo sapiens)”, the logFC.mWT.over.Luc stood at 1.73.
The same measure, in the same setting: with “COL4A2_71 (YNGPPGLQGFPGLQGR; listed as Homo sapiens)” the figure was 1.38.
On the same count and under the same terms, with “COL18A1_1505 (LQPPVVQLHDSNPYPR; listed as Homo sapiens)” the figure was 1.46.

The assay is the same for the next values; noted with them: log fold change, ADAMTS7 WT over luciferase.
For the substance “SERBP1_56 (QAAAQTNSNAAGKQLR; listed as Homo sapiens)”, the logFC.mWT.over.Lux came out at 3.97.
On the same count and under the same terms, then “SRGN_59 (LLPGESNKIPR; listed as Homo sapiens)”, with 4.23; and “THBS2_290 (LSENLKR; listed as Homo sapiens)”, with 4.65.
On the same count and under the same terms, then “VIM_314 (QESTEYR; listed as Homo sapiens)”, with 2.63; and “VIM_333 (LKGTNESLER; listed as Homo sapiens)”, with 4.37.

For the origin of these results see patent US20240368668A1, “SUBSTRATES AND BIOMARKERS OF ADAMTS7” (The Broad Institute, Inc., priority 2021, published 2024).
